Results reported in patent publication US20250320501A1, “PALMITOYLATION OF THE ALTERNATIVE AMINO TERMINUS OF THE BTK-C ISOFORM CONTROLS SUBCELLULAR DISTRIBUTION AND SIGNALING” (The Research Foundation for the State University of New York, priority 2022, published 2025).

Test system: BTK-A and BTK-C
Assay: Activating phosphorylation of BTK isoforms after stimulation with other ligands
Assay type: cell-based, human
Conditions: ligand stimulation (not shown)

B1: RANKL: ligand used for stimulation of BTK activation (protein, UniProt O14788 140-317, looked up)
Tumor necrosis factor ligand …: IRAEKAMVDGSWLDLAKRSKLEAQPFAHLTINATDIPSGSHKVSLSSWYHDRGWAKISNMTFSNGKLIVNQDGFYYLYANICFRHHETSGDLATEYLQLMVYVTKTSIKIPSSHTLMKGGSTKYWSGNSEFHFYSINVGGFFKLRSGEEISIEVSNPSLLDPDQDATYFGAFKVRDID
increase of activating phosphorylation levels above unstimulated levels: only modestly
